# Measured values from patent US20250011363A1, “OPTIMIZED SHORTENED PEPTIDE THAT BINDS TO ACETYLCHOLINE RECEPTOR, AND USE THEREOF” (SKINMED CO., LTD., priority 2021, published 2025).
# B1: 6mer-2-1043 (peptide)
# peptide: RDKGKK
# B2: 6mer-2-1031 (peptide)
# peptide: RAWERK
# B3: 6mer-2-1015 (peptide)
# peptide: RDEMKR
# B4: 6mer-2-1042 (peptide)
# peptide: KKMFRK
# B5: 6mer-2-1051 (peptide)
# peptide: RKHMRR
# B6: 6mer-2-1047 (peptide)
# peptide: RHDDKR
# B7: 6mer-2-1063 (peptide)
# peptide: RFNVRK
# B8: 6mer-2-1077 (peptide)
# peptide: KMTIKK
# B9: 6mer-2-1059 (peptide)
# peptide: RFADRR
# B10: 6mer-2-1065 (peptide)
# peptide: RIANRK
# B11: 6mer-2-1033 (peptide)
# peptide: KMDEKK
# B12: 6mer-2-1014 (peptide)
# peptide: RPPMRR
# B13: 6mer-2-1061 (peptide)
# peptide: KPPIKK
# B14: 6mer-2-1032 (peptide)
# peptide: KETVKR
# B15: 6mer-2-1030 (peptide)
# peptide: RAPFKK
# B16: 6mer-2-1091 (peptide)
# peptide: RFDNKR
# B17: 6mer-2-1058 (peptide)
# peptide: RMPWKK
# B18: 6mer-2-1082 (peptide)
# peptide: KYTERR
# B19: 6mer-2-1029 (peptide)
# peptide: KEEFKK
# B20: 6mer-2-1086 (peptide)
# peptide: KNDWRK
# B21: 6mer-2-1036 (peptide)
# peptide: KAKNKR
# B22: 6mer-2-1035 (peptide)
# peptide: RPPVKK
# B23: 6mer-2-1049 (peptide)
# peptide: KMSPRR
# B24: 6mer-2-1056 (peptide)
# peptide: RNDERK
# B25: 6mer-2-1028 (peptide)
# peptide: KPEHRR
# B26: 6mer-2-1055 (peptide)
# peptide: KPDFKR
# B27: 6mer-2-1034 (peptide)
# peptide: KHSWRR
# B28: 6mer-2-1037 (peptide)
# peptide: KIHWKK
# B29: 6mer-2-1016 (peptide)
# peptide: RNEEKR
# B30: 6mer-2-1038 (peptide)
# peptide: KHWERK
# B31: 6mer-2-1080 (peptide)
# peptide: RKHKKK
# B32: 6mer-2-1083 (peptide)
# peptide: KTKGKR
# B33: 6mer-2-1079 (peptide)
# peptide: KCNEKK
# B34: 6mer-2-1045 (peptide)
# peptide: RHAHRR
# B35: 6mer-2-1057 (peptide)
# peptide: RKKKKK
# B36: 6mer-2-1020 (peptide)
# peptide: KHDKKR
# B37: 6mer-2-1068 (peptide)
# peptide: RIHVKK
# B38: 6mer-2-1027 (peptide)
# peptide: KTPVKK
# B39: 6mer-2-1060 (peptide)
# peptide: KTNERK
# B40: 6mer-2-1084 (peptide)
# peptide: REKPRK
# B41: 6mer-2-1072 (peptide)
# peptide: KPHWKR
# B42: 6mer-2-1039 (peptide)
# peptide: RNHFRK
# B43: 6mer-2-1026 (peptide)
# peptide: KENHRK
# B44: 6mer-2-1053 (peptide)
# peptide: KEMGKK
# B45: 6mer-2-1044 (peptide)
# peptide: KHTDKK
# B46: 6mer-2-1062 (peptide)
# peptide: KYNIRK
# B47: 6mer-2-1046 (peptide)
# peptide: RNSEKR
# B48: 6mer-2-1022 (peptide)
# peptide: KCNPRR
# B49: 6mer-2-1025 (peptide)
# peptide: RCSHRR
# B50: 6mer-2-1041 (peptide)
# peptide: RACDKR
# B51: 6mer-2-1018 (peptide)
# peptide: RPTKKK
# B52: 6mer-2-1052 (peptide)
# peptide: KAPARK
# B53: 6mer-2-1050 (peptide)
# peptide: KPPPRK
# B54: 6mer-2-1048 (peptide)
# peptide: RIHNRK
# B55: 6mer-2-1021 (peptide)
# peptide: RYTPKR
# B56: 6mer-2-1088 (peptide)
# peptide: RPCEKK
# B57: 6mer-2-1078 (peptide)
# peptide: KDTFRR
# B58: 6mer-2-1085 (peptide)
# peptide: RPEIRK
# B59: 6mer-2-1069 (peptide)
# peptide: KHDMKK
# B60: 6mer-2-1075 (peptide)
# peptide: RHMERK
# B61: 6mer-2-1017 (peptide)
# peptide: RAPVRR
# B62: 6mer-2-1066 (peptide)
# peptide: KPEHKR
# B63: 6mer-2-1023 (peptide)
# peptide: KAEFKR
# B64: 6mer-2-1070 (peptide)
# peptide: RPHVRR
# B65: 6mer-2-1073 (peptide)
# peptide: KYSWRK
# B66: 6mer-2-1064 (peptide)
# peptide: RCMKRR
# B67: 6mer-2-1081 (peptide)
# peptide: KYKMRR
# B68: 6mer-2-1024 (peptide)
# peptide: RFHNKR
# B69: 6mer-2-1019 (peptide)
# peptide: RNTWKK
# B70: 6mer-2-1076 (peptide)
# peptide: RYCIRR
# B71: 6mer-2-1071 (peptide)
# peptide: RTTWRK
# B72: 6mer-2-1089 (peptide)
# peptide: RKTDRR
# B73: 6mer-2-1040 (peptide)
# peptide: KYAWRK
# B74: 6mer-2-1074 (peptide)
# peptide: RPMGRK
# B75: 6mer-2-1090 (peptide)
# peptide: KEMHKK
# B76: 6mer-2-1067 (peptide)
# peptide: RDEIRK
# B77: 6mer-2-1054 (peptide)
# peptide: KKNKKR
# B78: 6mer-2-1087 (peptide)
# peptide: KEEMRR
# B79: 6mer-2-1013 (peptide)
# peptide: KPPDKR
# Biological target: acetylcholine receptor
# Assay: SPR, peptide at 10 uM on immobilized AchR
row,Binder,Binding affinity (RU)
1,B1,40
2,B2,33
3,B3,29
4,B4,36
5,B5,24
6,B6,28
7,B7,24
8,B8,34
9,B9,35
10,B10,27
11,B11,28
12,B12,34
13,B13,38
14,B14,31
15,B15,28
16,B16,31
17,B17,24
18,B18,31
19,B19,40
20,B20,21
21,B21,25
22,B22,39
23,B23,26
24,B24,22
25,B25,41
26,B26,30
27,B27,38

row,Binder,Binding affinity (RU)
1,B28,26
2,B29,41
3,B30,33
4,B31,23
5,B32,39
6,B33,40
7,B34,41
8,B35,25
9,B36,21
10,B37,26
11,B38,32
12,B39,35
13,B40,29
14,B41,29
15,B42,26
16,B43,33
17,B44,34
18,B45,41
19,B46,35
20,B47,39
21,B48,22
22,B49,39
23,B50,22
24,B51,24
25,B52,23
26,B53,26
27,B54,22

row,Binder,Binding affinity (RU)
1,B55,39
2,B56,39
3,B57,40
4,B58,42
5,B59,36
6,B60,31
7,B61,40
8,B62,29
9,B63,26
10,B64,31
11,B65,24
12,B66,39
13,B67,32
14,B68,37
15,B69,23
16,B70,34
17,B71,25
18,B72,43
19,B73,36
20,B74,33
21,B75,33
22,B76,29
23,B77,43
24,B78,21
25,B79,23
